The supplement of paper PMC9170038

Test system: MS2 coat protein
Assay: apparent KD of MS2 coat protein; designed switch direction (-1 OFF switch, 1 ON switch): -1; higher = weaker reporter binding
In short: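 Designed RNA switches were transcribed on Illumina chips by stalled E. coli RNA polymerase and titrated with SNAP-549-labelled MS2 coat protein from 0.7 or 1.5 nM, doubling to 3 µM. Step length ran from 0.8–1.5 h at the lowest concentration to 10–20 min at the highest. The apparent KD is the median over clusters for each design, from curve-fitted normalised cluster fluorescence.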

[1] = Eterna round: R95, input ligand: FMN 200 uM
[2] = Eterna round: R95, input ligand: microRNA oligo, concentration not stated
[3] = Eterna round: R95, input ligand: none
[4] = input ligand: microRNA oligo, concentration not stated

Row | Sequence | apparent KD of MS2 coat protein [1] [µM] | apparent KD of MS2 coat protein [2] [µM] | apparent KD of MS2 coat protein [3] [µM] | apparent KD of MS2 coat protein (input ligand: FMN 200 uM) [µM] | apparent KD of MS2 coat protein (input ligand: none) [µM] | apparent KD of MS2 coat protein [4] [µM]
1 | AGUUACUACAAGCUUUGGGACAUGAGGAUCACCCAUGUUCGUCUUAUUGUAGUAGGUACGCUGACGUACCUACUACU [Mat - Sensor v3 - turn-off var 1 - JL Mod - D6] (puzzle: Sensor v3, turn-off variant 1) | 0.0159 | 0.0428 | 0.0145 | – | – | –
2 | UAGAAUCGAGGAUAUACAUGAGGAUCACCCAUGUGUUGCCGCGUGAUGUGUUUGUCAGGUAGAAGGCGAUUAUA [Exclusion 3 - Mod of Jieux's Gilly Gone Silly 23 v.8] (puzzle: Exclusion 3) | – | 0.0638 | – | – | – | –
3 | AAGAAACAUGAGGAUCACCCAUGUGAGGAUAUGACCAAGAAAAGAAAAGAAAGAAGAUUCAGAAGGCACAAAGG [salish99-ex1_r3_060] (puzzle: Exclusion 1) | 0.0497 | 0.0299 | 0.0407 | – | – | –
4 | CCGAAUAAGCAGGAUAUCGAAUCGGAGACGAUUCGAGAAGGGUUAACAUGAGGAUCACCCAUGUUCCUUAACGG [Mat - Exclusion 6 - Eli Mod - D79] (puzzle: Exclusion 6) | – | 0.0173 | – | – | – | –
5 | AAAUCUGAGAAGGAUAUGGUACAGGAAAUGGUGCCAGAAGGUUUCACAUGAGGAUCACCCAUGUCGAAUAGUGA [EX6 #65] (Eterna round: R97, puzzle: Exclusion 6) | – | – | – | 0.0296 | 0.0193 | –
6 | GCAGCAUAUGUAGGAUAUCUGCACGUGUAGUGCAGAGAAGGACAUGAGGAUCACCCAUGUAAUUAAGAUCAAUUAUUAAGCUGC [ENG1/4-A3] (Eterna round: R96, puzzle: Exclusion NG 1) | – | – | – | 0.0377 | 0.0222 | 0.0173
7 | GUAGAGUCAGGAUAUACGAGAUCGAAAGAUCAGUGGUCCUUACAUGAGGAUCACCCAUGUAGAAGGGACUCUAC [Omei mod 12 to Eli's favorate candidate (ch.parushev)] (Eterna round: R97, puzzle: Exclusion 2) | – | – | – | 0.0396 | 0.79 | –
8 | AAAAGGCAAGCAUGAUCCCACAUGAGGAUCACCCAUGUGUUCGUCUUAUAGGCUGCUGAGGCUUUUGCCUCGGUGGC [LRO Sensor-off var1-05 loose mod of D91 from Mat747] (Eterna round: R97, puzzle: Sensor, turn-off variant 1) | – | – | – | 0.587 | 0.728 | –
9 | AAGGGACAUGAGGAUCACCCAUGUGAGGAUAUGCUAUGGAAAAUAAAAAAUAAACAUAGCAGAAGGCAUAAAAA [Mat - Exclusion 1 - Eli mod - D37] (Eterna round: R96, puzzle: Exclusion 1) | – | – | – | 0.0892 | 0.0992 | 0.0653
10 | UACAUGAGGAUCACCCAUGUCGGGUAAACGAAGGUUACUCAAGAGGAUAUAAAACCGAAAGGGUUUUAGAAGGCUUUUCCUCGA [Eternabot solution 27] (Eterna round: R96, puzzle: Exclusion NG 3) | – | – | – | 0.0923 | 0.0867 | 0.046
11 | GGACAUGCAGGAUAUGUAAAAUUUGACAUGAGGAUCACCCAUGUAGAUCCUGAAUUUCCUGCAGAAGGGCAUGUCC [Mat - Exclusion 5 - Eli Mod - D18] (Eterna round: R97, puzzle: Exclusion 5) | – | – | – | 0.396 | 0.109 | –
12 | GGAUCGAAAGUGAGGAUAUACCACUGGAUACAGUGGUAGAAGGCACAUGAGGAUCACCCAUGUCUCUACGAUCC [Fiskers BMX 4 - 42] (puzzle: Brourd's mod of Exclusion 4) | 0.0399 | 0.013 | 0.015 | – | – | –
13 | CCAGCGUAUGUGAGGAUAUGCUGGUCCUUGGAUCAGCAGAAGGCACAUGAGGAUCACCCAUGUGAUAACGUUGG [JL bmx4 3.39] (puzzle: Brourd's mod of Exclusion 4) | – | 0.0466 | – | – | – | –
14 | GGCCUUCCGCAAGCUUUUUACAUGAGGAUCACCCAUGUGGUUUUUAGUCUUAUGUUCGGGCCCGUGUGGGCUCGGGC [-25.5, -46.5, A 13%] (Eterna round: R97, puzzle: Sensor, turn-off variant 1) | – | – | – | 0.0284 | 0.029 | –
15 | AUGAGCAGACGGAGAUCCAACAUGAGGAUCACCCAUGUCUCAAAAGCUUUUUGCUCAUCUUAUUGUACCUUGGUGCA [Mat - Sensor v3 - turn-off var 1 - JL Mod - D17] (puzzle: Sensor v3, turn-off variant 1) | 0.172 | 0.0165 | 0.213 | – | – | –
16 | AGUACUAACACGAAAGUGUUAGUACAAUAAGCUUGUGCAACAUGAGGAUCACCCAUGUCCUCAUAAGCUCGUCUUAU [salish99_TOv2_r3_044] (puzzle: Sensor v3, turn-off variant 2) | 0.544 | 0.0752 | 0.574 | – | – | –
17 | UACACUGCAUGAGGAUCAAACAUGAGGAUCACCCAUGUGUAGCAAGCUUUUUGCUCGUCUUAUAAUUAUGUAGUGUA [Electric Eye 11 - Jieux - Sensor, turn-off variant 1] (Eterna round: R97, puzzle: Sensor, turn-off variant 1) | – | – | – | 0.014 | 0.0121 | –
18 | UUCACAUGGACAUGAGAUCACAUGAGGAUCACCCAUGUGAAUAACAAGCUUUUUGCUCGUCUUAUGUCCAAUAAUAA [Stov1/14-C1] (Eterna round: R97, puzzle: Sensor, turn-off variant 1) | – | – | – | 0.014 | 0.0128 | –
19 | UUUUUUUUGCGAGGAUAUGCAUUUAGUUAGUUAGCAGAAGGCGCGUUUCUAUACUCCUCUUCUUACAUGAGGAUCACCCAUGUU [JR_ExcNG1_Sub033] (Eterna round: R96, puzzle: Exclusion NG 1) | – | – | – | 0.0699 | 0.0351 | 0.0345
20 | UUUCUCUGGGCGUCUUCUUACAUGAGGAUCACCCAUGUUUCAUAGGAUAUGCUAUAGUGUUACAUGCAGAAGGAUGUUUGUUUU [JR_ExcNG3_Sub080] (Eterna round: R96, puzzle: Exclusion NG 3) | – | – | – | – | – | 0.189
21 | UAUAUAUAGUAAGGAUAUGUAAUUAUUUUAUACACAGAAGGUACUGACAUGAGGAUCACCCAUGUUUUAGUGUGGGCAUGUAGA [JMF's solution 51] (Eterna round: R96, puzzle: Exclusion NG 1) | – | – | – | – | – | 0.0471
22 | AAUAACAAGUAGAUCCUAAACAUGAGGAUCACCCAUGUGCUCGUCUUGUAAAGUACUAUCACGAAAGUGAUAGUACA [Sensor 3, v1 - 58] (puzzle: Sensor v3, turn-off variant 1) | 0.067 | 0.36 | 0.115 | – | – | –
23 | AGUACUAACACGCUUGUGUUAGUACAAUAAGCUUGUGAAACAUGAGGAUCACCCAUGUCCUCAUAAGCUCGUCUUAU [salish99_TOv2_r3_072] (puzzle: Sensor v3, turn-off variant 2) | 0.017 | 0.654 | 0.0159 | – | – | –
24 | UACAUGUGAGGAUAUUAGUAGUAAAUAAAUAAAAUUAUUACUGAGAAGGUACAUGAGGAUCACCCAUGUUCCUU [Salish 062 v23] (Eterna round: R97, puzzle: Exclusion 4) | – | – | – | 0.0175 | 0.0127 | –
